Reference: the supplement of paper PMC10065799, “High-throughput profiling of sequence recognition by tyrosine kinases and SH2 domains using bacterial peptide display” (eLife, 2023)

Assays:
c-Src SH2 = experiment: SH2 binding enrichment of the phosphorylated peptide, bacterial display (enrichment ratio); higher = better substrate or ligand; peptides without Tyr show the background
Grb2 SH2 = Grb2 SH2 (UniProt P62993); experiment: as above
SHP2-C SH2 = experiment: as above
c-Abl (mouse) = experiment: phosphorylation enrichment, bacterial display (enrichment ratio); higher = better substrate or ligand; peptides without Tyr show the background
Jak2 = Jak2 (UniProt O60674); experiment: as above
Chain of Jak2 (O60674 whole entry, looked up): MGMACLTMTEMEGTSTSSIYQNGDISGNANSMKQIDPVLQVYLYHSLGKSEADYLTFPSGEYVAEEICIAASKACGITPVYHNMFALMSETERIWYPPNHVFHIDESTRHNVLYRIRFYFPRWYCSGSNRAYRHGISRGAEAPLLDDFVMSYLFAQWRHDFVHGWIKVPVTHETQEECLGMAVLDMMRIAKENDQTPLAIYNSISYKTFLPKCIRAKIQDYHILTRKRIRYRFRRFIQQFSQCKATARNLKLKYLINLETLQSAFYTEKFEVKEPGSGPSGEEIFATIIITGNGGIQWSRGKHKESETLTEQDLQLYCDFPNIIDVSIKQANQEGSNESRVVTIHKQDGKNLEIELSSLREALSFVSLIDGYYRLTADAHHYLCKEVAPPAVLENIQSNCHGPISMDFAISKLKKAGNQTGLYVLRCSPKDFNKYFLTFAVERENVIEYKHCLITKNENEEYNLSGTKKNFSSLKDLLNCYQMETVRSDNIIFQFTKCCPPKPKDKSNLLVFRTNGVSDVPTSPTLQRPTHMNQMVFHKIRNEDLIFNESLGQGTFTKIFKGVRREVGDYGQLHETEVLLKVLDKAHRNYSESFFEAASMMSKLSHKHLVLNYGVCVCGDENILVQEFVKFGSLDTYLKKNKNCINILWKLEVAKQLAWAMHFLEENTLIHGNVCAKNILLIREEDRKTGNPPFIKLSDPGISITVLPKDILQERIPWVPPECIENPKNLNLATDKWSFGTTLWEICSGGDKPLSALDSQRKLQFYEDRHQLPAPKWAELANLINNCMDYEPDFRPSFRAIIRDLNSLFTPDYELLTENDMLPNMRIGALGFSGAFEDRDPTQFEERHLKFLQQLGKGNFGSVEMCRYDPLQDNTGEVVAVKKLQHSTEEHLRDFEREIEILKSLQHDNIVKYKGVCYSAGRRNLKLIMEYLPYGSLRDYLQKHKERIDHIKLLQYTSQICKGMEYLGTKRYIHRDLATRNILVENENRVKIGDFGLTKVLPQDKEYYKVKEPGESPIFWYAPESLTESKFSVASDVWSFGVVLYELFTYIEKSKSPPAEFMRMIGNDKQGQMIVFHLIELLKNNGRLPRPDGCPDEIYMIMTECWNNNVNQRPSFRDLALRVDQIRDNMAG

Hck = Hck (UniProt P08631); experiment: as above
Chain of Hck (P08631 whole entry, looked up): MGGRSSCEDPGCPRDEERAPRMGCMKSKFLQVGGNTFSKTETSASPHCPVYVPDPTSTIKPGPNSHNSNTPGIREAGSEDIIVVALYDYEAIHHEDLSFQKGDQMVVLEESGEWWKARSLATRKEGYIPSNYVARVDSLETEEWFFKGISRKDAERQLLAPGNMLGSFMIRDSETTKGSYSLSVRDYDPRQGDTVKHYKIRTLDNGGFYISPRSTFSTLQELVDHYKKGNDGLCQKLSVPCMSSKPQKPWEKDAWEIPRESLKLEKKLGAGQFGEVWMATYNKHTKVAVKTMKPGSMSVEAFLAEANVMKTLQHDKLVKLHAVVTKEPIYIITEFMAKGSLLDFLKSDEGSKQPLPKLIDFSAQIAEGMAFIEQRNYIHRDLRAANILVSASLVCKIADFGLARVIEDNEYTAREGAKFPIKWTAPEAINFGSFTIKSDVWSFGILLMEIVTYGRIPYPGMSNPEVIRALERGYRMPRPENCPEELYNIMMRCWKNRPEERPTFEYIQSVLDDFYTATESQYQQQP

AncSZ = experiment: as above
Fer (mouse) = experiment: as above
FGFR3 = FGFR3 (UniProt P22607); experiment: as above
FGFR1 = FGFR1 (UniProt P11362); experiment: as above
Chain of FGFR1 (P11362 whole entry, looked up): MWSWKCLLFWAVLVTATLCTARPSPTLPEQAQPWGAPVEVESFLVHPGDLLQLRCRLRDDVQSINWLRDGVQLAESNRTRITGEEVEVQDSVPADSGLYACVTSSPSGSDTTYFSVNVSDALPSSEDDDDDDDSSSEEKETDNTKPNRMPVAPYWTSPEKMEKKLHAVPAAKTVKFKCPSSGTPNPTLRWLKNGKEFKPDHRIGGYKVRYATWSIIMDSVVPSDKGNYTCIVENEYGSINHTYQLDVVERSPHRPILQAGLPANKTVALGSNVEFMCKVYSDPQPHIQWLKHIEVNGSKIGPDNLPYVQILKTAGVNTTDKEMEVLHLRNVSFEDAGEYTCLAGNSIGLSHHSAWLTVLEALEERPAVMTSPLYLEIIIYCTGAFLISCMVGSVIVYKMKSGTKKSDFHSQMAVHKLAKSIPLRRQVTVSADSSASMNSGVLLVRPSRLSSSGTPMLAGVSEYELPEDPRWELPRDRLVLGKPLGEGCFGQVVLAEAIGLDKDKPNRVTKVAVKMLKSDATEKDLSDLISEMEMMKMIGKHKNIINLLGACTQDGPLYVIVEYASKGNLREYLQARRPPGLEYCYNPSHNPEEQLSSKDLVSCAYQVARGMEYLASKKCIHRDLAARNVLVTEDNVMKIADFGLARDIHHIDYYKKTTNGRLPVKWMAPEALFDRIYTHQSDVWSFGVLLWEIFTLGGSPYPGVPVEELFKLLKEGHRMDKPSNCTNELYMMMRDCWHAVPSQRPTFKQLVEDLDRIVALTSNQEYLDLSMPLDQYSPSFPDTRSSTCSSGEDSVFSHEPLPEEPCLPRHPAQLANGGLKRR

Fes = Fes (UniProt P07332); experiment: as above
Chain of Fes (P07332 whole entry, looked up): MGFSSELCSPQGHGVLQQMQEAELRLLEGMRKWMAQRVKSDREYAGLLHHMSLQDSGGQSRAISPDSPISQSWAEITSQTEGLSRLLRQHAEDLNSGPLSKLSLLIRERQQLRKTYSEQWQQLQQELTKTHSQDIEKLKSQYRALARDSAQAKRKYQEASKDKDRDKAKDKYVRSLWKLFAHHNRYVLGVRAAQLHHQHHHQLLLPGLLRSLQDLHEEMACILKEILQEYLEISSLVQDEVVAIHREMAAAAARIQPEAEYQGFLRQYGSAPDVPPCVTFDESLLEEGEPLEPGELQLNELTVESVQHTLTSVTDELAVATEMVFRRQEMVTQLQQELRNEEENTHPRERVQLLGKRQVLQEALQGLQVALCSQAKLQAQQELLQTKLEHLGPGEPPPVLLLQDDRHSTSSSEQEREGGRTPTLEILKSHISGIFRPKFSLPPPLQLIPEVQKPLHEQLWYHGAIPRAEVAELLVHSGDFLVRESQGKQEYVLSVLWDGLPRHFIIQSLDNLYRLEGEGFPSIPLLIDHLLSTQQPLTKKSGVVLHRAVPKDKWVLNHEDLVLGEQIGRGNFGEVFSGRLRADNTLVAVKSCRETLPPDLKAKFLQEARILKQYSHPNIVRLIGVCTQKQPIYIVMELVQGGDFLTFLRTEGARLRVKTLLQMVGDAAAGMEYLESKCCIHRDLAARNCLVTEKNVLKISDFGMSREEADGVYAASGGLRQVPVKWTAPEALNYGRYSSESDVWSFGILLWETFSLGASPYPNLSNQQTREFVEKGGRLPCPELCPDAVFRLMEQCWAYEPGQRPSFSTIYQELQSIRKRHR

Fyn = Fyn (UniProt P06241); experiment: as above
Chain of Fyn (P06241 whole entry, looked up): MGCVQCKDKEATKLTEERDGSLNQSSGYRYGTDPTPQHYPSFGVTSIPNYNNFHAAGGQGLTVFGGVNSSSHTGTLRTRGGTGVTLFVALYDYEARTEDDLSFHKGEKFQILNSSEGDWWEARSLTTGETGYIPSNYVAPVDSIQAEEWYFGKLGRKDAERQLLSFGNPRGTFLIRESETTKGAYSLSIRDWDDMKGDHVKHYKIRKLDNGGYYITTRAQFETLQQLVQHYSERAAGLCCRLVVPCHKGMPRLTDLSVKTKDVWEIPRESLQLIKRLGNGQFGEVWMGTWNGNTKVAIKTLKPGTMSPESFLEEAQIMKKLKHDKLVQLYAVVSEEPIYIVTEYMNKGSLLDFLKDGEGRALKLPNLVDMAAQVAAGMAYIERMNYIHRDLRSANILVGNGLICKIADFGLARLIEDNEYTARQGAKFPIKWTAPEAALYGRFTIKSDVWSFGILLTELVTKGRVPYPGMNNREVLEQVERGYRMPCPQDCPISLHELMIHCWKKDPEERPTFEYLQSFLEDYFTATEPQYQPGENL

MERTK = MERTK (UniProt Q12866); experiment: as above
c-Src = experiment: as above
EPHB1 = EPHB1 (UniProt P54762); experiment: as above
Chain of EPHB1 (P54762 whole entry, looked up): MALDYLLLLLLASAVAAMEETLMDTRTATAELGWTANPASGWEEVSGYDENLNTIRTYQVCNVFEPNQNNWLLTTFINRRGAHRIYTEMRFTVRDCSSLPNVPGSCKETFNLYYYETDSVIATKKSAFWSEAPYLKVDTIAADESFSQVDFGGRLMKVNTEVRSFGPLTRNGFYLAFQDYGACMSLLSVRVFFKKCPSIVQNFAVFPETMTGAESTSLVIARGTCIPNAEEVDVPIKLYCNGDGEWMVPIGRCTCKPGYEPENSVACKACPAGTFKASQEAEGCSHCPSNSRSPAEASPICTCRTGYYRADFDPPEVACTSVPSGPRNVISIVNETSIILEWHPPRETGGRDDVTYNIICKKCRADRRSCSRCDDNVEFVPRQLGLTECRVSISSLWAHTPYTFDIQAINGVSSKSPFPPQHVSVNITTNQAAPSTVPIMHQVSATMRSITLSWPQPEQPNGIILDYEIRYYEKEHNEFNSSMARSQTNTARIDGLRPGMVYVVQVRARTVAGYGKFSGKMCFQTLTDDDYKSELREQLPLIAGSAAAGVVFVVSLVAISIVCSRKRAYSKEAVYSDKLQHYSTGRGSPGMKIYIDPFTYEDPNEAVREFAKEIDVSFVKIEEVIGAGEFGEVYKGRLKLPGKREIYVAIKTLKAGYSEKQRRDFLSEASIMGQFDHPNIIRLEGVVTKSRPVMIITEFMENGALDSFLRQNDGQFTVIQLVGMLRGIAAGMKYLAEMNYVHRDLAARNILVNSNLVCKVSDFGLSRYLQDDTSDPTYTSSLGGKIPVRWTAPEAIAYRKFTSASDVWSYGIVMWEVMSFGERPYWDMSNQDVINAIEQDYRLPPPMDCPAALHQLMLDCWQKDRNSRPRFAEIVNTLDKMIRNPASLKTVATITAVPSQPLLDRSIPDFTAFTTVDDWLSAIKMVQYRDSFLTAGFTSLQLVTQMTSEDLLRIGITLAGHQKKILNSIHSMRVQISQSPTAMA

EPHB2 = EPHB2 (UniProt P29323); experiment: as above
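Wherever SH2 binding enrichment of the phosphorylated peptide, bacterial display is given: peptide library displayed on the E. coli surface as eCPX fusions, selected cells deep-sequenced, score is each peptide's frequency after selection divided by its frequency in the input.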
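Wherever phosphorylation enrichment, bacterial display is given: 11-residue human phosphosite peptides and single-mutation variants displayed on the E. coli surface, counted by deep sequencing, each peptide's frequency after selection divided by its frequency in the unselected input library; frequency after pTyr selection over input frequency; kinase dosed for 20-30% of maximal phosphorylation in three min.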

Sequence | SH2 binding enrichment (c-Src SH2) | SH2 binding enrichment (Grb2 SH2) | SH2 binding enrichment (SHP2-C SH2) | phosphorylation enrichment (c-Abl (mouse)) | phosphorylation enrichment (Jak2) | phosphorylation enrichment (Hck) | phosphorylation enrichment (AncSZ) | phosphorylation enrichment (Fer (mouse)) | phosphorylation enrichment (FGFR3) | phosphorylation enrichment (FGFR1) | phosphorylation enrichment (Fes) | phosphorylation enrichment (Fyn) | phosphorylation enrichment (MERTK) | phosphorylation enrichment (c-Src) | phosphorylation enrichment (EPHB1) | phosphorylation enrichment (EPHB2)
NGVSFYINLCQ [IGF2R_Y2025_YF] | 0.396 | 0.791 | 0.651 | 1.16 | 1.92 | 0.567 | 1.5 | 0.671 | 1.01 | 0.568 | 2 | 0.452 | 0.478 | 0.472 | 1.11 | 0.699
NMSRIYSTAKV [ACE_Y151] | 0.545 | 0.901 | 1.25 | 0.545 | 0.535 | 0.528 | 0.573 | 0.416 | 0.448 | 0.451 | 0.563 | 0.477 | 0.417 | 0.477 | 0.342 | 0.493
NNDLCYWVLEL [IARS1_Y434_P437L] | 0.55 | 0.664 | 0.518 | 1.31 | 3.65 | 4.01 | 2.47 | 1.33 | 7.8 | 7.77 | 1.88 | 5.45 | 2.33 | 5.34 | 1.37 | 1.05
NNTFLYQLVFD [EXO1_Y284] | 1.14 | 1.44 | 1.15 | 0.684 | 1.14 | 2.58 | 1.35 | 4.67 | 1.72 | 1.65 | 1.21 | 1.7 | 5.99 | 2.28 | 5.34 | 4.11
NTCNRYCCDEI [ITGB3_Y660_R662C] | 0.557 | 0.841 | 0.752 | 1.03 | 1.43 | 0.574 | 1.44 | 0.612 | 0.88 | 0.595 | 1.49 | 0.577 | 0.538 | 0.541 | 0.694 | 0.594
NVLPEYKLQAP [KCNH2_Y388_D383N] | 0.455 | 0.906 | 0.564 | 0.677 | 0.813 | 0.527 | 0.784 | 0.402 | 0.619 | 0.411 | 0.949 | 0.508 | 0.43 | 0.439 | 0.518 | 0.632
NVSILYTASQA [CTNNA1_Y222_P219S] | 0.499 | 0.921 | 0.685 | 0.787 | 0.95 | 0.547 | 0.892 | 0.629 | 0.725 | 0.434 | 1.02 | 0.447 | 0.505 | 0.531 | 0.548 | 0.51
NVVNEYSSELE [FGB_Y172] | 0.556 | 0.932 | 0.463 | 0.717 | 0.99 | 0.628 | 1.19 | 0.515 | 0.769 | 0.565 | 1.25 | 0.515 | 0.422 | 0.482 | 0.611 | 0.627

Continued, in another order:

SH2 binding enrichment (c-Src SH2) | SH2 binding enrichment (Grb2 SH2) | SH2 binding enrichment (SHP2-C SH2) | Sequence | phosphorylation enrichment (c-Abl (mouse)) | phosphorylation enrichment (Jak2) | phosphorylation enrichment (Hck) | phosphorylation enrichment (AncSZ) | phosphorylation enrichment (Fer (mouse)) | phosphorylation enrichment (FGFR3) | phosphorylation enrichment (FGFR1) | phosphorylation enrichment (Fes) | phosphorylation enrichment (Fyn) | phosphorylation enrichment (MERTK) | phosphorylation enrichment (c-Src) | phosphorylation enrichment (EPHB1) | phosphorylation enrichment (EPHB2)
0.513 | 1.04 | 0.751 | NHFKIHNLCAE [PTEN_Y68_Y68H_YF] | 0.367 | 0.459 | 0.394 | 0.58 | 0.384 | 0.441 | 0.428 | 0.642 | 0.466 | 0.437 | 0.432 | 0.384 | 0.374
0.854 | 0.954 | 0.849 | NKVKFYIPDMN [NCR1_Y84] | 0.602 | 0.8 | 0.432 | 0.743 | 0.448 | 0.66 | 0.432 | 0.865 | 0.396 | 0.388 | 0.567 | 0.496 | 0.476
0.505 | 0.852 | 0.735 | NNRVFYGNSDR [RS1_Y177] | 0.499 | 0.546 | 0.337 | 0.437 | 0.338 | 0.411 | 0.375 | 0.536 | 0.395 | 0.315 | 0.414 | 0.284 | 0.378
0.542 | 0.909 | 0.699 | NPQKPYFIRLY [WAS_Y83_S82P] | 0.544 | 0.906 | 0.443 | 1.01 | 0.474 | 0.675 | 0.395 | 1.08 | 0.354 | 0.344 | 0.303 | 0.561 | 0.599
0.533 | 0.783 | 0.654 | NPQKSCFIRLY [WAS_Y83_Y83C] | 0.783 | 1.07 | 0.494 | 1.02 | 0.481 | 0.769 | 0.441 | 1.14 | 0.504 | 0.396 | 0.403 | 0.597 | 0.503
0.573 | 1.27 | 0.944 | NPQKSYFILLF [WAS_Y83_R86L_YF] | 0.606 | 1.05 | 0.43 | 0.836 | 0.414 | 0.906 | 1.01 | 0.969 | 0.449 | 0.398 | 0.337 | 0.546 | 0.551
0.725 | 0.979 | 0.953 | NQILPYIEELV [PPP2R1B_Y341_K343E] | 0.875 | 1.45 | 0.568 | 1.37 | 0.931 | 0.781 | 0.533 | 1.28 | 0.53 | 0.504 | 0.507 | 0.673 | 0.644
0.632 | 1.15 | 0.823 | NTGDFCDLFGG [PTPN11_Y63_Y63C_YF] | 0.655 | 0.969 | 0.578 | 1.01 | 0.487 | 0.653 | 0.511 | 1.11 | 0.499 | 0.486 | 0.413 | 0.584 | 0.555
1.01 | 1.44 | 1.77 | NTQRPHYKGGG [TYROBP_Y111_Y111H] | 0.605 | 0.491 | 0.384 | 0.428 | 0.422 | 0.486 | 0.316 | 0.549 | 0.402 | 0.391 | 0.361 | 0.326 | 0.332
